Holding throughout (experiment): X-ray crystallography
Data set [1] has as its target T1, Nrd1 290-468 wt (Saccharomyces cerevisiae, UniProt P53617 290-468).
T1 sequence: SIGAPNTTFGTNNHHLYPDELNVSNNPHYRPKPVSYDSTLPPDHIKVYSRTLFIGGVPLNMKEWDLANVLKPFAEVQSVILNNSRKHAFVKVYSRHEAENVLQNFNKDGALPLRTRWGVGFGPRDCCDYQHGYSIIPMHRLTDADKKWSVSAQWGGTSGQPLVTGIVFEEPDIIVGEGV

Data set [2] addresses T1, Nrd1 290-468 wt. This is another data set of the same source.
The target in data set [3] is T1, Nrd1 290-468 wt. This is another data set of the same source.

Read-outs that look alike come from different tables or passages of the source.

The values that follow come from paper PMC5737872.

On to GUAA (ssRNA), for which the binding result with Nrd1 290-468 wt [1] is given as “binds”.

As for UUAGUAAUCC (ssRNA), the binding result with Nrd1 290-468 wt [2] is “binds”.

Take CGUAAA (ssRNA): in the data set with Nrd1 290-468 wt [3], the binding result is listed as “binds”.
